Measurements published in paper PMC11363328.

Molecular target: DDX3X (UniProt O00571)
Assay: fluorescence polarization, protein titration
Conditions: FP: 14.4 mM HEPES-KOH pH 8, 108 mM NaCl, 1 mM MgCl2, 14.4% glycerol, 0.1% DMSO, 2 mM DTT, 1 mM ATP, 10 nM probe, room temperature, 10 min

Chain of DDX3X (O00571 132-607): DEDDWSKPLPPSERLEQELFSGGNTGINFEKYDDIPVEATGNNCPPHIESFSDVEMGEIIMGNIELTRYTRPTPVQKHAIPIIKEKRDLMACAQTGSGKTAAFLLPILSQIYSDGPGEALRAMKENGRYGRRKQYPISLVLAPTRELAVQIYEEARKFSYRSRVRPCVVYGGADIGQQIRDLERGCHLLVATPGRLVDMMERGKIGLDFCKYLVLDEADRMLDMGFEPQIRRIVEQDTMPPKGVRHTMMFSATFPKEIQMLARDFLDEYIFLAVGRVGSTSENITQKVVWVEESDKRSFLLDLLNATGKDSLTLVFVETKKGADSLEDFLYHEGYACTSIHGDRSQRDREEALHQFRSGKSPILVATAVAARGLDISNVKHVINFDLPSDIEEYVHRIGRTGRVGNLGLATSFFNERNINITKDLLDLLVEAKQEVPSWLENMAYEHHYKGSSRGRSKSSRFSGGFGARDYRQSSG

Q: AGAGAGAGAGAGAGAG [FAM-r(AG)8] was tested. Which K half did it give?
A: Its K half is 2800 nM.
